Experiment [1] concerns the target human FcRn (heterodimer of an alpha chain and a β2-microglobulin subunit), soluble (human) (UniProt P55899). Nature of the experiment: SPR (BIAcore 3000), IgG injected over chip-coupled human FcRn, pH 6.0, 25 C; apparent (bivalent) KD estimated from the steady state curves of FIG. 1, Run 2.
Experiment [2] concerns the target cynomolgus monkey FcRn (cyno alpha chain and cyno β2-microglobulin), soluble (cynomolgus monkey) (UniProt Q8SPV9). Put plainly: SPR (BIAcore 3000), soluble cyno FcRn injected over chip-coupled IgG, pH 6.0, 25 C; monovalent KD (a) determined by ratio of koff to kon.
Experiment [3] concerns the target human FcRn (heterodimer of an alpha chain and a β2-microglobulin subunit), soluble (human) (UniProt P55899). Put plainly: SPR (BIAcore 3000), soluble human FcRn injected over chip-coupled IgG, pH 6.0, 25 C; monovalent KD (a) determined by ratio of koff to kon. In general terms: SPR reads the build-up and loss of mass on a sensor chip optically.
Experiment [4] has the same target. Put plainly: SPR (BIAcore 3000), IgG injected over chip-coupled human FcRn, pH 6.0, 25 C; apparent (bivalent) KD estimated from the steady state curves of FIG. 1, Run 1.
The target in experiment [5] is cynomolgus monkey FcRn (cyno alpha chain and cyno β2-microglobulin), soluble (cynomolgus monkey) (UniProt Q8SPV9). Nature of the experiment: SPR (BIAcore 3000), soluble cyno FcRn injected over chip-coupled IgG, pH 6.0, 25 C; monovalent KD (b) determined by fitting the steady state RU against concentration.
Experiment [6] addresses human FcRn (heterodimer of an alpha chain and a β2-microglobulin subunit), soluble (human) (UniProt P55899). Nature of the experiment: SPR (BIAcore 3000), soluble human FcRn injected over chip-coupled IgG, pH 6.0, 25 C; monovalent KD (b) determined by fitting the steady state RU against concentration.
Experiment [7] shares this target. Put plainly: SPR, human FcRn; fold over wildtype, summarized from FIGS. 4 and 5.
Experiment [8] deals with cynomolgus monkey FcRn (cyno alpha chain and cyno β2-microglobulin), soluble (cynomolgus monkey) (UniProt Q8SPV9). Nature of the experiment: SPR (BIAcore 3000), soluble cyno FcRn injected over chip-coupled IgG, pH 6.0, 25 C.
The target of experiment [9] is human FcRn (heterodimer of an alpha chain and a β2-microglobulin subunit), soluble (human) (UniProt P55899). Nature of the experiment: SPR (BIAcore 3000), soluble human FcRn injected over chip-coupled IgG, pH 6.0, 25 C.
For experiment [10] the target is unchanged. Put plainly: SPR, bivalent IgG over human FcRn-coupled chip, steady state, apparent KD, pH 6.0, 25 C, second run (about two fold higher RU of FcRn).
For experiment [11] the target is unchanged. Nature of the experiment: SPR (BIAcore), soluble human FcRn injected over chip-coupled IgG, pH 6.0, 25 C, monovalent KD.
Experiment [12] has the same target. Nature of the experiment: FcRn affinity at pH 6.0, as shown in FIG. 24 (BIAcore, human FcRn).
The target is the same in experiment [13]. Nature of the experiment: SPR, soluble human FcRn injected over IgG-coupled chip, monovalent KD, pH 6.0, 25 C.

Here are results for 14 substances from patent US20100098730A1.

Usually koff stands for a measure of how fast the partners let go of each other. For orientation: kon means the second-order rate constant of association.

Chain of UniProt P55899 (P55899 24-297 limits assumed, chain 1 of 2): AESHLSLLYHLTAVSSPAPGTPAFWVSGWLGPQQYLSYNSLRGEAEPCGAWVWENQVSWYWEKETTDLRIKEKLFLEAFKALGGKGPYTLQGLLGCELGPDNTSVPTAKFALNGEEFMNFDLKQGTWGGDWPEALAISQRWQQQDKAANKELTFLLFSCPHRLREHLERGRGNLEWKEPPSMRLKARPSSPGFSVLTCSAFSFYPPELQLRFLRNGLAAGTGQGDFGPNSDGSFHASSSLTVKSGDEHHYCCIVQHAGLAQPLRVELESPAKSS
Chain of UniProt P55899 (P61769 21-119 limits assumed, chain 2 of 2, further chain): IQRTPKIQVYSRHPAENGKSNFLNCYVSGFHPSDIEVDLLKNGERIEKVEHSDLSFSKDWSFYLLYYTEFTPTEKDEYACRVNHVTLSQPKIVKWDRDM
Chain of UniProt Q8SPV9 (Q8SPV9 24-297 limits assumed, chain 1 of 2): as the sequence (P55899 24-297 limits assumed, chain 1 of 2) above, with N39D, E44Q, G99S, S189G, S190N, L217M, S269T counted along it
Chain of UniProt Q8SPV9 (Q8SPW0 21-119 limits assumed, chain 2 of 2, further chain): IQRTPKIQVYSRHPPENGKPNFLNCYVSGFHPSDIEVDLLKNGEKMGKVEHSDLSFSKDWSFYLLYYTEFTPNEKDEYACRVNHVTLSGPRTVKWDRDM

For the substance “anti-VEGF (Bevacizumab) IgG1 variant T307Q/A378V/Y436I (antibody)”, the Kd in experiment [1] is 30 nM.
As for “anti-VEGF (Bevacizumab) IgG1 variant T307Q/N434A (antibody)”, the Kd was 240 nM in [2]; 240 nM in experiment [3]; 180 nM in experiment [4]; 241 nM in [5]; 258 nM in experiment [6].
As to “anti-VEGF (Bevacizumab) IgG1 variant T307Q/A378V (antibody)”, in experiment [1], the Kd is 90 nM.
In experiment [7], “anti-VEGF (Bevacizumab) IgG1 variant N434H (antibody)” returned a Bivalent Affinity Fold increase at pH 6.0 of 9 fold. In addition, in experiment [7], the Bivalent Affinity Fold increase at pH 7.4 was 6 fold. Moreover, the Monovalent Affinity Fold increase at pH 6.0 in experiment [7] is 3 fold. Further, the koff in experiment [8] was found to be 0.218 s⁻¹; in experiment [9], 0.166 s⁻¹. Also, the on-rate constant (kon) in experiment [8] came out at 480000 M⁻¹ s⁻¹; in experiment [9] it was 400000 M⁻¹ s⁻¹. Besides, the Kd in [2] is 450 nM; in experiment [3], 420 nM; in [1], 100 nM; in [5], 470 nM; in experiment [6], 470 nM.
As for “anti-VEGF (Bevacizumab) IgG1 variant N434A (antibody)”, in experiment [10], the Kd worked out at 250 nM.
As for N434W (antibody), in [11], the Kd stood at 44 nM.
As for “anti-VEGF (Bevacizumab) IgG1 variant T307Q/Y436I (antibody)”, in [1], the Kd is 70 nM.
Turning to “anti-VEGF (Bevacizumab) IgG1 variant V308P/N434A (antibody)”, the Kd in experiment [2] was 66.6 nM; in experiment [3], 72 nM; in experiment [1], 8 nM; in [5] it was 69.9 nM; in experiment [6], 76 nM.
With “anti-VEGF (Bevacizumab) IgG1 variant T307Q/E380A/N434S (antibody)”, the Kd in experiment [2] was found to be 153 nM; in experiment [3], 146 nM; in experiment [5], 160 nM; in experiment [6], 148 nM.
“IgG1 variant N434A of a different human antibody” displayed a fold higher FcRn affinity at pH 6.0 compared to the wildtype antibody in experiment [12] of 3 fold.
As for “anti-HER2 (trastuzumab) IgG1 variant M252Y/V308P/N434Y (antibody)”, the fold improvement of affinity over the wild-type IgG1 in experiment [13] was 450 fold. The Kd in [11] was found to be 3.7 nM.
“anti-VEGF (Bevacizumab) IgG1 variant T307Q (antibody)”: the Kd in experiment [1] was 250 nM.
Still for that read-out and setting: in the case of “anti-VEGF (Bevacizumab) IgG1 variant A378V (antibody)” it was 500 nM.
Turning to N434A (antibody), the Kd in [11] stood at 570 nM.
